In the nanobody polyreactivity screen of Harvey et al. (2022):

Experiment: yeast display, Sf9 membrane polyspecificity reagent, FACS + sequencing; frameworks hold sequencing errors
Procedure, shortened: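 Nanobodies from a synthetic yeast display library (Saccharomyces cerevisiae BJ5465), induced 36–48 hours with galactose, were stained 1 hour at 4 °C with 10% biotinylated, detergent-solubilized Sf9 membrane reagent, enriched on streptavidin microbeads, then FACS-sorted. Anti-HA (expression) and streptavidin (reagent binding) fluorescence set low and high (top ~1%) gates. Polyreactivity labels come from the gate of origin. Genes were colony-PCR amplified, MiSeq 2 × 250 sequenced and filtered by CDR length.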

Sequence	polyreactivity (PSR sort gate)
QVQLVESGGGLVQAGGSLRLSCAASGSIIGVNAMGWYRQAPGKERELVAAISSTGGSTYYADSVKGRFTLSRDNAKNTVYLQMNSLKPEDTAVYSCNTDYSKSIGDGYAGFDYWGQGTQVTVSS	low polyreactivity
QVQLVESGGGLVQAGGSLRFSCAASGRTFFGYAMGWYRQAPGKERELVAAISRGGTTHYADSVKGRFTISRDNAKNTVYLQMNSLKPEDTAVYYCAADGYPYIWSGIEYDYWGQGTQVTVSS	high polyreactivity
QVQLVESGGGLVQAGGSLRISCAASGITFYGYAMGWYRQAPGKERELVATISKSGGITSYADSVKGRFSISRDNAKNTVYLQMNSLKPEETAVYYCNRGKSYGGYDYWGQGTQVTVSS	low polyreactivity
QVQLVESGGGLVQAGGSLRLSCVPTDMGWYRQAPGKERELVATISLSDGNTYYADSVKGRFTISRDNAKNTVYLQMNSLKPEDTAVYYCNALHTWHQTYDYWGQCTQVTVSS	low polyreactivity
QVQLVESGGGLVQAGGSLRLTCAASGRTFARNAMGWYRQAPGKERELVAAITRSGGSTYYADSVKGRFTISRDNAKNTVYLQMNSLKPEDTAVYYCAADVRTYRGYYWKAFDYWGQGTQVTVSS	high polyreactivity
QVQLVESGGGLDQAGGSLRLSCAAAGRTFPYYAMGWYRQAPGKERELVATISTSGTSTYYADSVKGRFTISRDKAKNTVYLQMNSLKPEDTAVYYCNAVHRNWRQKFDYWGLGTQVTVSS	high polyreactivity
QVQLVESGGGLVQAGGSLRLSCAASGIIFPNYAMGWYRPAPGKERELVAAIDDDASTTYADSVKGRFTISRDNAKNTVYLQMNSLKPEDTAVYYFAADGFDWYDWRWTYDYWGQGTQVTVSS	high polyreactivity
QVQLVESGGGLVQAGGSLRLSCAASGRIFARNAMGWYRQAPGKERELVAGITWSGSSTYYADSVKGRFTISRDNAKNTVYLQMNSLKPEDTAVYYCAVDYYVGSLRIDHDYWGQGTQVTVSS	low polyreactivity
QVQLVESGGGLVQAGGSLRLSCAASGSIFIGYAMGWYRQAPGKERELVAAITSAGSTYADSVKGRFTISRDNAKNTGYLQRNSVKPEDTAVYYCAARFFLVTLDYWGQGTQVTVSS	low polyreactivity
QVQRVETGGGLVQAGGSLRLSSAASVLTFKWYAMGWYRQSPGKERELVAAISRDGSTYYGDSVKVRFTISRDNAKNTVYLQMNSLKPEDTAVYYCAADIWPSSLLADEYDYWGQGTQVTVSS	high polyreactivity
QVQLVESGVGLVQAGGSLRISCAASGRIYRSNAMGWYRQAPGKERELLAAISSNGGSTYYADSVKGRFTISRDNAKNTVYLQMNSLKPEDTAVYYCAARVYYPVRYGYWGQGTQVSVSS	high polyreactivity
QFQLVESGGGLLQAGGSLRLSCAASGSTFYRYVMGWYRQATGKERELVAAITWRGGTTYYADSVKGRFTISRDNAKNTVYLKMISLKPDDTAVYYCNADRGGLRWFWQVLYDYWGQGTQVTVSS	low polyreactivity
QVHLVDSGGGLVQAGGSLRLSCPASGFIFGLYVMGCYRQSPGKERELVAAITTSVGSTYYADSVKGRFTISRDNAKNTVYLQMNSLKPEDTSVYYCAKTSGTIDYDYWGQGTQVTVSS	low polyreactivity
QVQLVESGGGLVQAGGSLRLSVAASGRTFYSYSMGWYRQAHGKERELVASITNGETKNYADSVKGRFTISRDNAKNTVYLQMNSLKPEDTAVYYCAADDSSRTTYDYWGQGTQVTVSS	low polyreactivity
QVQLVDSGGGLVQAGGSLRLSCAASGYTFEAYAMGWYRQAPGKERELVAAINYSGGSTYADSVKGRFTISRDNAKNTVYLQMNSLKPEDTAVYYCATRLYGYWPYGFDYWGQGTQVTVSS	low polyreactivity
QVQLVESGGGLVQAGGTLRLSCAASGSTSSNNAMGWYRQAPGKARELVADISTNGDSTSYADSVKGRFTISRDNAKNPVYLLMNSLKPEDTAVYYSAASTYVTYWEYDYWGQGTQVTVSS	low polyreactivity
QVQLVESGGGLVQAGGSLRLICAASGSNFGSNAMGWYRQAPGKETEFVAVITWRVGVTYYADSVKGRFTISRDNAKNTVYLQMNSLKPEDTAVYYCNVDWKVYGAPDYRIAWKYDYWGQGTQVTVSS	low polyreactivity
QFQLVESGGGLFQAGGILRLSCAASGRNFLYNAMGWDRQAPGKERELVAAISSRGARTYYADSVKGRFTISRDNAKNTVYFQMNSLKPEDTAVYYCATDSYRYDGIQYLYEYYYWGQGTQVTVSS	high polyreactivity
QVQLVESGGGLVQAGGSLRLSCAAPGSTFQFNVMGWYRQAPGKERELVAAITSGASTYYADSVKGRFTISRDNAKNTVYLQMYSLEPEDTAVYYCAVDYSFLYDYVQRYYYWGQGTQVTVSS	high polyreactivity
QVQLVESGGGLVQAGGSLRLSCAASGSTWNRNPMGWYRQAPGKERELVAAISWRGDSTSYADSVKGRFTISRDNAKNTVYLQMNSLKPEDTAVYYCATAHDYAFYRYWYVPSEYNYWGQGTQVTVSS	low polyreactivity
QVQLVESGGGLVQAGGSLRLSCAASGLTFGDYTMGWYRQAPGKERELVAAITWSGASTYYADSVKGRFTISRDNAKNTVYLQMHSLKPEDTAVYYCAAERTPSYRAYDYWGQGTKVTVSS	low polyreactivity
QVQLVESGGGLVQAGGSLRLSCAASGRTFSKNAMGWYRQAPGKERELVAAISWSGGRTYYADSVKGRFTISRDNAKNTVYLQMNSLKPEDTAVYYCNAYYPGNGPRSTSTRYEYWGQGTQVTVSS	high polyreactivity

Sequence	polyreactivity (PSR sort gate)
QVQLVESGGGLVQAGGSLRLSCAASVSIFVRNAMGWYRPAPGKERELGAADSVKGRFTISRDNAKNTVYLQMNSLKPEDTAVYYCAADEWIVHDGYYSSYYYWGQGTQVTVSS	low polyreactivity
QVQLVESGGGLVQAGGSIRLSCAASGRIFHPYAMGWYRQAPGKERELVATISWSGGSTTYADSVKGRFTISRDNAKNTVYLQMNSLKPEDTAVYYCNADYWWSYVRFDYWGQGTQVTVSS	low polyreactivity
QVQLVESGGGLVQAGGSLRLSCAASGRIFWYYAMGWSRQAPGKERELVATISYGGGNTYYADSVKGRFTISRDNAKNTVYLQMNSLKPEDTAVYYCARVPYAYLPYKPFQQYSYDYWGQGTQVTVSS	high polyreactivity
QVQLVESGGGLVQAGGSLRLSCDASGFIFWWYAMGWYRQAPGKEREFVAYISWSGARTYYADSVKGRFTISRDNAKNTVYLLMNSLKQEDTAVYYCNADRIGRYYQSYGGGHMDYWGQGTQVNVSS	high polyreactivity
QVQLVESGGGLVQAGGSLRLSCAASGSNIFQYDMGWYRQAPGKERELVAAITISGGSTYYADSVKGRFTISRDNAKNTVYLQLNILKPEDTAVYYCNADYEWYLGGYDYWGQGTQVTVSS	high polyreactivity
QVQLVESGGGLVQAGGSLRLSCAASGSIFGYYALGWSRQAPGKERELVAVITWNTGNTYYADSVKGRFTISRDNAKNTVYLEMNSLKPEDTAVYYCAADQTGWGDTYDYWGQGTQVTVSS	low polyreactivity
QVQLVESGGGLVQAGGSLRLSCASSGFTFYKYVMGGYRQDPGKEREMVAASSRSGGSTYYADSVKGRFTISRDNAKNTVYLQMNSLIPEDTAVYSCAKDSCGAPEGPYDYWGQGTQVTVSS	high polyreactivity
QVQLVESGGGLVQAGGSLRLSCAASGSSFVRNGMGWYRQAPGKERELVASIRGSGSRTYYADSVKGRFTISRDNAKNTVYLQMNSLKPEDTAVYYCAAGYWRYYHYPPASGYWGQGTQVTVSS	high polyreactivity
QVQLVESGGGLFQAGGSLSLSCAASGFIFSGYAMGWYRQAPGTERELVAAITWSCSNTFYADSVKGRFTISRDNAKITVFLQMNSLKPEDTAVYYCTAVSKYKRSDYYYWGQGTQVTVSS	high polyreactivity
QVQLVESGGGLVQAGGSLRLSCAASGRIFGWYAMGWYRQAPGKERELVAAITSGSRTSYADSVKGRFTISRDNAKNTVYLQMNSLKPVDTAVYYCNRVSHLDYYWGQGTQVTVSS	high polyreactivity
QVQLVESGGGLVQAGGSLRLSCAASGSTFAPNALGWSRQAPGKERELVAAIRTNTVSTYYADSVKGRFTISRDNAKNTVYLQMNSLKPEDTEVYYCAAVFSGFYYAYDYWGQGTQVTVSS	high polyreactivity
QDQLVESGGGLVQAGGSLRLSCAASGFTFRHYVMGGSRQAPGKERELVAAIDVRGGSTYYADSVKGRFTISRDNAKNTVYLQMNSLKPEDTAVYYCAKRLIPRLPIMQKMDYWGQGTQVTVSS	low polyreactivity
QVQLVESGGGLVQAGGSLRLSCAASGRIFGSYVMGWYRQAPGKERELVAAISFSGDTTYYADSVKGRFTISRDNAKNTVYLQMNSLKPEDTAVYYCAAEFPQGYYAFKYDYWGQGTQVTVSS	high polyreactivity
QVQLVESGGGLVQAGGSLRLSCAASGITFKRYAMGWYRQAPGKESELVATITWRDGSTYYADSVKGRFTISRDNAKNTVYLQMNSLKPEDTAVYYCAVAAYSRRSPYYHYNYWGQGTQVTVSS	high polyreactivity
QVQLVESGGGLVQAGGSLRLSCAASGITFVYYAMGWYRQAPGNERELVATIDRSGTSTYYADSVKGRFTISRDNAKNTVVLQMTSLKQEDTAVYDCNAHRYAFYQYYRRMDYWGKGTQVTVSS	high polyreactivity
QVQLVESGGGLVQAGGSLRLSCAASGSIFAGNTMGWYRQAPGKEREFVASIRSSSGSTYYADSVKGRFTISRDNAKNTVYLQMNSLKPEDTAVYYCAARVYHYREFWVNYWGHGTQVTVSS	high polyreactivity
QVQLVESGGGLVQAGGSLRLSCAASGIIFRYNAMGWYRQAPGKARELVAALSFRGGSTRYADSVKGRCTISRDTATNTVYLQMNSLKPEDTAVYYCNAQRRTYIYDYWGQGTQVTVSS	high polyreactivity
QVQLVDSGGRLVQAGGSLRLSCAASGFIFGTNAMGWYRQAPGKERELVASISSTGGSTYYADSVKGRCTISRDNAKNTVYLQMNILKPEETAVYYCAADPYPEYIRYLPGVDYSGQGTQVTVSS	low polyreactivity
QVQLVESGGGLVQAGGSLRLSCAASGNTFAQNTMGWYRQAPGKEREFVAGITFSGTGTYYADSVKGRFTISRDNAKNTVYLQMNSLKPEDTAVYYCAADTPTPGLFYWFYPHRGYWGQGTQVTVSS	low polyreactivity
QVQLVESGGGLVQAGGSLRLSCADSGRTFYPNAMGWYRQAPGKERELVARIRQSGTSTYYADSVKGRFTISRDNAKNTVYLQMNSLKPEDTAVYYCAARYAVGYPPYRYYYWGQGTQVTVSS	high polyreactivity
QVQLVESGGGLVQAGGSLRLSCAASGFTFYRYAMGWYRHAPGKERELVAAITRSGSRTYYADSVKGRFTISRDNAKNTVYLQMNSLKPEDTAVYYFNTDGGDHPTARYGYWGQVTQVTVSS	high polyreactivity
